Experimental data published in the supplement of paper PMC9112550, “Optimization of the antimicrobial peptide Bac7 by deep mutational scanning” (BMC Biology, 2022).

tested on: Escherichia coli TOP10; test: shrunken log2 fold change of peptide-encoding DNA abundance (4.5 h post-induction vs induction); higher = less antimicrobial activity (less host growth inhibition); details: time post-induction: 4.5 h; library: site-saturation at positions 5, 18, 19, 20
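Note: peptides expressed intracellularly from a pBAD plasmid library in pooled LB shake-flask culture, induced with 0.3% L-arabinose, DNA abundance read by NGS, three biological replicates, DESeq2 with apeglm shrinkage.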

Sequence	shrunken log2 fold change
RRIRARPPRLPRPRPRPYQFPRP	-0.34
RRIRQRPPRLPRPRPRPYYTPRP	-0.363
RRIRGRPPRLPRPRPRPPHFPRP	0.67
RRIRCRPPRLPRPRPRPENDPRP	-0.0268
RRIRLRPPRLPRPRPRPAPEPRP	0.109
RRIRDRPPRLPRPRPRPEKRPRP	-0.0167
RRIRCRPPRLPRPRPRPVEYPRP	-0.0499
RRIRRRPPRLPRPRPRPCELPRP	-0.0595
RRIRRRPPRLPRPRPRPADVPRP	0.146
RRIRKRPPRLPRPRPRPPIPPRP	0.987
RRIRHRPPRLPRPRPRPNSHPRP	-1.09
RRIRCRPPRLPRPRPRPNHCPRP	-0.551
RRIRDRPPRLPRPRPRPWAPPRP	0.00499
RRIRVRPPRLPRPRPRPLDGPRP	-0.267
RRIRNRPPRLPRPRPRPTNFPRP	0.0354
RRIRGRPPRLPRPRPRPGGAPRP	1
RRIRDRPPRLPRPRPRPSGAPRP	0.0348
RRIRVRPPRLPRPRPRPQRQPRP	-0.207
RRIRNRPPRLPRPRPRPMWRPRP	-0.0211
RRIRPRPPRLPRPRPRPNPGPRP	0.0588
RRIRLRPPRLPRPRPRPESFPRP	0.0256
RRIRLRPPRLPRPRPRPVMRPRP	0.076
RRIRWRPPRLPRPRPRPGEKPRP	0.489
RRIRIRPPRLPRPRPRPWFHPRP	-0.768
RRIRSRPPRLPRPRPRPIDQPRP	-0.174

Sequence	shrunken log2 fold change
RRIRIRPPRLPRPRPRPPGHPRP	0.11
RRIRSRPPRLPRPRPRPVNFPRP	-0.262
RRIRMRPPRLPRPRPRPCSKPRP	-0.00101
RRIRIRPPRLPRPRPRPGPTPRP	0.175
RRIRVRPPRLPRPRPRPALGPRP	0.423
RRIRHRPPRLPRPRPRPLMQPRP	-0.248
RRIRKRPPRLPRPRPRPKGNPRP	0.325
RRIRPRPPRLPRPRPRPLNTPRP	-0.482
RRIRRRPPRLPRPRPRPQAAPRP	0.0105
RRIRMRPPRLPRPRPRPTGWPRP	0.687
RRIRIRPPRLPRPRPRPRFHPRP	-0.42
RRIRWRPPRLPRPRPRPTQGPRP	0.533
RRIRSRPPRLPRPRPRPQHMPRP	-0.336
RRIRSRPPRLPRPRPRPAAAPRP	0.868
RRIRTRPPRLPRPRPRPIEQPRP	-0.00141
RRIRFRPPRLPRPRPRPERQPRP	-0.000475
RRIRGRPPRLPRPRPRPPCLPRP	0.503
RRIRRRPPRLPRPRPRPFVWPRP	-0.218
RRIRDRPPRLPRPRPRPQSGPRP	-0.136
RRIRLRPPRLPRPRPRPPMTPRP	0.907
RRIRERPPRLPRPRPRPYDWPRP	-0.0444
RRIRFRPPRLPRPRPRPDRQPRP	0.0398
RRIRSRPPRLPRPRPRPRNHPRP	-0.0799
RRIRRRPPRLPRPRPRPPTSPRP	0.54
RRIRNRPPRLPRPRPRPYLFPRP	-0.541

Sequence	shrunken log2 fold change
RRIRFRPPRLPRPRPRPMNEPRP	-0.595
RRIRVRPPRLPRPRPRPHVRPRP	-0.0188
RRIRDRPPRLPRPRPRPLTPPRP	0.128
RRIRERPPRLPRPRPRPDSVPRP	-0.17
RRIRPRPPRLPRPRPRPMSIPRP	-0.211
RRIRVRPPRLPRPRPRPCWWPRP	0.297
RRIRGRPPRLPRPRPRPWENPRP	1.02
RRIRTRPPRLPRPRPRPVECPRP	0.0216
RRIRYRPPRLPRPRPRPFHFPRP	-0.19
RRIRWRPPRLPRPRPRPMGHPRP	-0.116
RRIRCRPPRLPRPRPRPWLDPRP	-0.273
RRIRNRPPRLPRPRPRPIVGPRP	0.003
RRIRCRPPRLPRPRPRPDNFPRP	-0.489
RRIRQRPPRLPRPRPRPPHTPRP	1.08
RRIRFRPPRLPRPRPRPWDHPRP	-0.483
RRIRPRPPRLPRPRPRPHKKPRP	0.165
RRIRERPPRLPRPRPRPQGTPRP	0.0468
RRIRIRPPRLPRPRPRPIAIPRP	-0.257
RRIRCRPPRLPRPRPRPHLYPRP	1.42
RRIRERPPRLPRPRPRPEEQPRP	0.221
RRIRFRPPRLPRPRPRPTYFPRP	-0.175
RRIRDRPPRLPRPRPRPTNWPRP	0.111
RRIRERPPRLPRPRPRPWGLPRP	-0.026
RRIRQRPPRLPRPRPRPMCHPRP	-0.136
RRIRKRPPRLPRPRPRPYMTPRP	-0.0252
